Tests used:
Conditions in all cases: 20 nM; 72 h
[1] = test system: MCF10A; assay: one-nucleolus phenotype percent effect (relative to siNT 0% and siNOL11 100%); higher = more cells with one nucleolus (ribosome biogenesis inhibition)
Method: (§1)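 After 72 h, cells were fixed and stained with Hoechst and anti-fibrillarin, and nucleoli per nucleus were counted with CellProfiler. Values are plate-adjusted percent effect for the one-nucleolus and 5+ nucleoli phenotypes, normalised to siNT (0%) and to the positive controls siNOL11 or siKIF11 (100%), as the mean of biological triplicates. Percent viability is the nuclei count relative to siNT.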

[2] = test system: MCF10A; assay: 5+ nucleoli phenotype percent effect (relative to siNT 0% and siKIF11 100%); higher = more cells with five or more nucleoli
Method: as §1

[3] = test system: MCF10A; assay: percent viability (nuclei count relative to siNT); higher = more viable cells
Method: as §1

Sequence | one-nucleolus phenotype percent effect [1] | 5+ nucleoli phenotype percent effect [2] | percent viability [3]
GGGAGCCAGGAAGUAUUGAUGU [hsa-miR-505-5p] | 10.3% | 1.85% | 68.7%
UAGCAAGAGAACCAUUACCAUU [hsa-miR-451b] | -10.8% | 3.42% | 71.6%
AGAAGGGGUGAAAUUUAAACGU [hsa-miR-3179] | 60.8% | -30.9% | 18.1%
ACACACUUACCCGUAGAGAUUCUA [hsa-miR-216b-3p] | -17.3% | 35.7% | 59%
GCCCCUGGGCCUAUCCUAGAA [hsa-miR-331-3p] | 6.3% | 8.19% | 61.2%
UGGGGAUUUGGAGAAGUGGUGA [hsa-miR-4450] | 46.8% | 3.63% | 16.5%
CAUCCCUUGCAUGGUGGAGGG [hsa-miR-188-5p] | -13.1% | 45.6% | 98.4%
CUCCGGGACGGCUGGGC [hsa-miR-4497] | -8.42% | 0.934% | 67.6%
UUUUAAGGACACUGAGGGAUC [hsa-miR-7856-5p] | -30.1% | 57.8% | 70.5%
UUAUGGUUUGCCUGGGACUGAG [hsa-miR-584-5p] | -25.7% | 35% | 77.9%
UGACUAACUCCCACUCUACAG [hsa-miR-6831-3p] | -28.1% | 16.8% | 41.8%
CAGGAAGGAGACAGGCAGUUCA [hsa-miR-6876-5p] | 10.4% | -24.5% | 21.8%
ACUGGAUUUGGAGCCAGAA [hsa-miR-378j] | -17.6% | -1.17% | 42.3%
AGGGGACUGGUUAAUAGAACUA [hsa-miR-4652-5p] | 47.2% | -5.22% | 14.5%
CAAGGAGACGGGAACAUGGAGC [hsa-miR-4428] | -16.1% | 32.8% | 69.6%
CUUGGAUUUUCCUGGGCCUCAG [hsa-miR-5004-3p] | 4.88% | -12% | 51.4%
AGUUCUUCAGUGGCAAGCUUUA [hsa-miR-22-5p] | 3.93% | 24% | 75.4%
CGCACCUGCCUCUCACCCACAG [hsa-miR-6804-3p] | -33.9% | 33.2% | 74.2%
CUUAGAUUAGAGGAUAUUGUU [hsa-miR-8061] | -12.7% | 58.8% | 73.7%
UCUUUGGUUAUCUAGCUGUAUGA [hsa-miR-9-5p] | 20.5% | -15.1% | 54.9%
CCUAGAAACUGUAAACUUAGUC [hsa-miR-8067] | -35.3% | 47.4% | 108%
AACUAGUAAUGUUGGAUUAGGG [hsa-miR-3923] | 43.2% | -20.8% | 21.9%
CCCUUCCCUCACUCUUCUCUCAG [hsa-miR-6734-3p] | -3.15% | 13.3% | 44.4%
GCUGGGCAGGGCUUCUGAGCUCCUU [hsa-miR-612] | 14.9% | -7.01% | 77.6%

Sequence | one-nucleolus phenotype percent effect [1] | 5+ nucleoli phenotype percent effect [2] | percent viability [3]
CAAAGAAUUCUCCUUUUGGGCU [hsa-miR-186-5p] | -14.6% | 42.9% | 59.3%
CGGCUGGAGGUGUGAGGA [hsa-miR-3652] | 44.8% | -23.6% | 24%
UACUAACUGCAGAUUCAAGUGA [hsa-miR-4637] | -24.1% | 24.1% | 140%
UUCAAGUAAUUCAGGUG [hsa-miR-1297] | -17.3% | 45.2% | 121%
UUGCAGCUGCCUGGGAGUGACUUC [hsa-miR-1301] | 26.9% | -32.5% | 49%
UUGGGGAAACGGCCGCUGAGUG [hsa-miR-2110] | 45.4% | -27.7% | 42.2%
UGAGGAUAUGGCAGGGAAGGGGA [hsa-miR-3679-5p] | -24.2% | 29.7% | 100%
AAGGGCUUCCUCUCUGCAGGAC [hsa-miR-3158-3p] | 32.8% | -9.95% | 12.1%
AACUAGCUCUGUGGAUCCUGAC [hsa-miR-4661-5p] | 21.8% | -18.4% | 13.9%
UCUAGUGCGGGCGUUCCCG [hsa-miR-6080] | -6.26% | 23.2% | 85.3%
CCAAGGAAGGAGGCUGGACAUC [hsa-miR-6830-5p] | 13.3% | -10.3% | 47.1%
UGCCUAGGCUGAGACUGCAGUG [hsa-miR-3135a] | 2.6% | 1.84% | 25.7%
UAGCACCAUUUGAAAUCGGUUA [hsa-miR-29c-3p] | -21% | 38% | 138%
ACCAUCGACCGUUGAUUGUACC [hsa-miR-181a-3p] | -7.58% | 21.1% | 87.3%
UGGCCCAAGACCUCAGACC [hsa-miR-7155-3p] | 11.3% | 18.5% | 35.1%
GGUGGGAUGGAGAGAAGGUAUGAG [hsa-miR-4769-5p] | -13.3% | 33.7% | 77.6%
CAGUGCCUCGGCAGUGCAGCCC [hsa-miR-33b-3p] | -17.8% | 24.5% | 107%
CGUGCCACCCUUUUCCCCAG [hsa-miR-1227-3p] | 6.65% | -2.5% | 93.4%
GAAUACUAAGUAAAAAAUCAGUA [hsa-miR-8084] | -33.5% | 66.7% | 215%
UGGGAACUUAGUAGAGGUUUAA [hsa-miR-4471] | 5.31% | 7.89% | 26.7%
GAGCUUAUUCAUAAAAGUGCAG [hsa-miR-590-5p] | -0.31% | -1.22% | 66.5%
GGGCGACAAAGCAAGACUCUUUCUU [hsa-miR-1273a] | 6.41% | -17.3% | 78.8%
AGAGGCUUUGUGCGGAUACGGGG [hsa-miR-3188] | 33.1% | -26% | 29.7%
GAAGAUGGACGUACUUU [hsa-miR-4426] | 31.4% | -32.9% | 28.5%

— the supplement of paper PMC10899765
